Blank lines part the entries; values can stand above or below the molecule they belong to.
What was measured:
CD47 on mouse CT26 cells = target: T1, CD47 on mouse CT26 cells (Mus musculus, UniProt Q61735); assay: flow cytometric analysis of CD47 expressing CT26 cells incubated with strain supernatants; format: binding
T1 construct: CT26 is a mouse colon carcinoma cell line which expresses CD47 on its cell surface; endogenous in cells; host or cells: CT26 mouse colon carcinoma cells
T1 sequence (Q61735 19-303): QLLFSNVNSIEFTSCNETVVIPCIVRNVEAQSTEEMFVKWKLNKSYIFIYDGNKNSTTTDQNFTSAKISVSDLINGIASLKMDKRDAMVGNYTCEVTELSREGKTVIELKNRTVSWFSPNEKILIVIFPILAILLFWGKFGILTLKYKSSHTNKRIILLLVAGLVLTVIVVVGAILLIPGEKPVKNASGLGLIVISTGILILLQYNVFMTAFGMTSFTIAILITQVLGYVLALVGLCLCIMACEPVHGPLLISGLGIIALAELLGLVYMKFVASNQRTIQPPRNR
From the text: FIG. 29 depicts a diagram of a flow cytometric analysis of CT26 cells.
FIG. 30 depicts a diagram of a flow cytometric analysis of CT26 cells.

mCD47 = target: T2, mCD47 (Mus musculus, UniProt Q61735); assay: SIRPα/CD47 ELISA binding assay of supernatants; conditions: supernatant
T2 sequence (Q61735 19-303): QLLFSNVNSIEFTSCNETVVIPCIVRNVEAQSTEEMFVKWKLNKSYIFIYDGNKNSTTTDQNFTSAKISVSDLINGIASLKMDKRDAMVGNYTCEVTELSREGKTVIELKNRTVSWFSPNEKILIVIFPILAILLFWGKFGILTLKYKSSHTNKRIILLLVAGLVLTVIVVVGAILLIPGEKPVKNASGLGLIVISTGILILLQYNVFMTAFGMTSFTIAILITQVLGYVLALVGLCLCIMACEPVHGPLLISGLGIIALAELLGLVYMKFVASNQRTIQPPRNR

[1] = SIRPα/CD47 ELISA binding assay, control coatings; conditions: supernatant
mPD1 = target: T3, mPD1 (Mus musculus, UniProt Q02242); assay: ELISA binding assay of bacterial extracts (J43-scFv); conditions: α-V5-HRP
T3 construct: purchased Rndsystems
T3 sequence (Q02242 25-288): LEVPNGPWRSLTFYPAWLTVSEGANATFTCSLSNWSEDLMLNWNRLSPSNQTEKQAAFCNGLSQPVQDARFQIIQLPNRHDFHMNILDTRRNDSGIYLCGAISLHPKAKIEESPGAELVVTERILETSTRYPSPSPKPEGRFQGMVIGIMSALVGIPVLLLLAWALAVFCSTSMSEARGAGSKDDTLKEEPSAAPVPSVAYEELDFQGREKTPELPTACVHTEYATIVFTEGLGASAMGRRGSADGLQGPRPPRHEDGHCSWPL
Experimental: (§1) E. coli comprising either tet-inducible J43-Anti-PD1-scFv-V5 or wild type controls were grown overnight in LB medium. […] Same amount of tetracycline was added to wild type control cultures.
(§2) To determine whether the single-chain antibody purified from E. coli DH5α functionally binds to the target protein, PD1, an ELISA assay was performed.

[2] = ELISA binding assay of bacterial extracts (J43-scFv), control coatings; conditions: α-V5-HRP
Experimental: as §1, §2

PD1 on mouse EL4 cells = target: T4, PD1 on mouse EL4 cells (Mus musculus, UniProt Q02242); assay: Flow cytometry, binding of anti-PD1-scFv to EL4 cells; format: cell-based
T4 construct: EL4 are a mouse lymphoma cell line which expresses PD1 on its cell surface; endogenous in cells; host or cells: EL4 mouse lymphoma cells
T4 sequence (Q02242 25-288): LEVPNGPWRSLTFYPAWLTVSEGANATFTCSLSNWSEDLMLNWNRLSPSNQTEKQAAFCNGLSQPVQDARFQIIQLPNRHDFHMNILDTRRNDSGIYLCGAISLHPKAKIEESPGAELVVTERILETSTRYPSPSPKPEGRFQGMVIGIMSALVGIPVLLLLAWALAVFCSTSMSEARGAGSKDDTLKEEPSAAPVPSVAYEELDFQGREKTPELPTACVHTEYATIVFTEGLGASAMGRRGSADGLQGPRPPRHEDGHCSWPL
Experimental: To determine whether anti-PD1-scFv expressed in E. coli binds to surface PD1 on mouse EL4 cells, flow cytometric analysis was performed using EL4 cells. EL4 are a mouse lymphoma cell line which expresses PD1 on its cell surface.
EL4 cells were grown in Dulbecco's Modified Eagle's Medium (DMEM) with 10% FBS. Cells were spun down, supernatant was aspirated, pellet was resuspended in 1 ml D-PBS, transferred into chilled assay tubes (1×10^6 cells), and washed 2-3 times in D-PBS with 0.5% BSA. Cells were resuspended in PBS with 0.5% BSA, to which the purified scFv-V5 and anti-V5-FITC antibody were added and incubated for 1 hour at room temperature. Negative control left out scFv-V5. Cells were resuspended in 0.5 ml PBS and analyzed on a flow cytometer.
EL4 are a mouse lymphoma cell line which expresses PD1 on its cell surface.
EL4 cells were grown in Dulbecco's Modified Eagle's Medium (DMEM) with 10% FBS and 1% Penicillin-Streptomycin Cells were spun down, supernatant was aspirated, pellet was resuspended in 1 ml D-PBS, transferred into chilled assay tubes (1×10^6 cells), and washed 3 times in D-PBS. Cells were resuspended in D-PBS with 0.5% BSA, to which the purified scFv-V5 and anti-V5-FITC antibody were added and incubated for 1 hour at room temperature. Negative control left out secreted J43-scFv-V5. Cells were then resuspended in 0.5 ml PBS and analyzed on a flow cytometer. Results are shown in (FIG. 20).

[3] = target: T5, mPD1 on the surface of EL4 cells (Mus musculus, UniProt Q02242); assay: PDL1 competition assay on EL4 cells (flow cytometry); format: cell-based; conditions: PDL1 0, 5, 10 and 30 μg/mL
T5 construct: EL4 are a mouse lymphoma cell line which expresses PD1 on its cell surface; endogenous in cells; host or cells: EL4 mouse lymphoma cells
T5 sequence (Q02242 25-288): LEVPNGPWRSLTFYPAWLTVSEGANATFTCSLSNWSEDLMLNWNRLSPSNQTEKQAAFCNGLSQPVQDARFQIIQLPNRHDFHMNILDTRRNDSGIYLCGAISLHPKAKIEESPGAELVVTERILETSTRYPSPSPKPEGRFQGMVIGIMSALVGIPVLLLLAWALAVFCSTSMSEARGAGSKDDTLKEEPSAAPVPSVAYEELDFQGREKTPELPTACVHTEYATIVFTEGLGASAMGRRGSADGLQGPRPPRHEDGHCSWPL
Experimental: Next, a competition assay was conducted to determine whether PDL1 could inhibit the binding of the anti-PD1-scFv secreted by the genetically engineered bacteria from binding to murine PD1. EL4 cells were grown and flow cytometry protocol was conducted essentially as described above except that PDL1 was added at various concentrations (0, 5, 10, and 30 μg/mL) during the incubation of the secreted anti-PD1-scFv-V5. Rat-IgG was used as a negative control of secreted scFv.

B1: murine SIRPalpha: tet-inducible murine SIRPalpha secreted from an E. coli Nissle strain (protein, UniProt P97797 32-513, looked up)
Tyrosine-protein phosphatase …: KELKVTQPEKSVSVAAGDSTVLNCTLTSLLPVGPIRWYRGVGPSRLLIYSFAGEYVPRIRNVSDTTKRNNMDFSIRISNVTPADAGIYYCVKFQKGSSEPDTEIQSGGGTEVYVLAKPSPPEVSGPADRGIPDQKVNFTCKSHGFSPRNITLKWFKDGQELHPLETTVNPSGKNVSYNISSTVRVVLNSMDVNSKVICEVAHITLDRSPLRGIANLSNFIRVSPTVKVTQQSPTSMNQVNLTCRAERFYPEDLQLIWLENGNVSRNDTPKNLTKNTDGTYNYTSLFLVNSSAHREDVVFTCQVKHDQQPAITRNHTVLGFAHSSDQGSMQTFPDNNATHNWNVFIGVGVACALLVVLLMAALYLLRIKQKKAKGSTSSTRLHEPEKNAREITQVQSLIQDTNDINDITYADLNLPKEKKPAPRAPEPNNHTEYASIETGKVPRPEDTLTYADLDMVHLSRAQPAPKPEPSFSEYASVQVQRK
competition of binding to CD47 on CT26 cells by recombinant SIRPalpha (CD47 on mouse CT26 cells; FIG. 29): recombinant SIRPalpha can compete with the binding | competition of binding to CD47 on CT26 cells by anti-CD47 antibody (CD47 on mouse CT26 cells; FIG. 30): the antibody can compete with the binding

ELISA signal, coating mCD47 (mCD47): 0.527 | ELISA signal, coating IgG [1]: 0.067 | ELISA signal, coating PBS [1]: 0.053
B2: Secreted anti-mCD47 scFv: anti-mCD47 scFv secreted by engineered Nissle (SYN3161), in supernatant (protein)
scFv: QVKLLQSGAALVKPGASVKMSCQASGYSFTDYWVTWVKQSHGQSLEWIGEIYPSNTVTNFNDNFKGKATLTVDKSTSTAYMELSRLTSEDSAIYYCTRIGNSGYRVGWFIYWGQGTLVTVLSGGGGSGGGGSGGGGSDTVLTQSPALAVSPGERVTISCKASESVSSHMHWYQQKPGQQPKLLIYKASNLASGVPARFSGSGSGTDFTLTIDPVEADDTATYFCQQGWNGPFTFGAGTRLELKRADAAGSGELGGSGKPIPNPLLGLDSTGSGHHHHHH

ELISA signal at 450 nm, mPD1 coating (mPD1; bacterial extract (1/2)): 0.90 | ELISA signal at 450 nm, mPD1 coating (mPD1; bacterial extract): 1.41 | ELISA signal at 450 nm, IgG coating ([2]; bacterial extract (1/2)): 0.11 | ELISA signal at 450 nm, PBS coating ([2]; bacterial extract (1/2)): 0.10 | ELISA signal at 450 nm, IgG coating ([2]; bacterial extract): 0.13 | ELISA signal at 450 nm, PBS coating ([2]; bacterial extract): 0.11 | Binding to EL4 cells (PD1 on mouse EL4 cells; purified scFv with anti-V5-FITC, two batches): population shift | Staining of EL4 cells (PD1 on mouse EL4 cells; secreted scFv 0, 2, 5 and 15 μL): dose-dependent staining | Binding to EL4 cells (PD1 on mouse EL4 cells; secreted scFv with anti-V5-FITC): population shift | Competition of PDL1 against binding of secreted scFv [3]: competed in a dose dependent manner
B3: J43-scFv-V5: single-chain variable fragment based on J43 monoclonal antibody against mouse PD-1, V5 and HIS tagged, expressed in E. coli (protein)
scFv: MQLEVRLLESGGGLVKPEGSLKLSCVASGFTFSDYFMSWVRQAPGKGLEWVAHIYTKSYNYATYYSGSVKGRFTISRDDSRSMVYLQMNNLRTEDTATYYCTRDGSGYPSLDFWGQGTQVTVSSGGGGSGGGGSGGGGSYELTQPPSASVNVGETVKITCSGDQLPKYFADWFHQRSDQTILQVIYDDNKRPSGIPERISGSSSGTTATLTIRDVRAEDEGDYYCFSGYVDSDSKLYVFGSGTQLTVLGKGELNSKLEGKPIPNPLLGLDSTRTGHHHHHH
